Results as given in patent publication US20250368707A1 (UNIVERSITY OF MIAMI, published 2025).

Biological target: the molecule itself
Experiment: SEC-MALS under native conditions in PBS; self-association (non-covalent dimer)

B1: mouse IL-2-10/CD25 (mIL2-linker-CD25-linker-IL10) (other)
chain: APTSSPTSSPTSSSTAEAQQQQQQQQHLEQLLMDLQELLSRMENYRNLKLPRMLTFKFYLPKQATELKDLQCLEDELGPLRHVLDLTQSKSFQLEDAENFISNIRVTVVKLKGSDNTFECQFDDESATVVDFLRRWIAFCQSIISTSPQGGGSGGGSGGGSELCLYDPPEVPNATFKALSYKNGTILNCECKRGFRRLKELVYMRCLGNSWSSNCQCTSNSHDKSRKQVTAQLEHQKEQQTTTDMQKPTQSMHQENLTGHCREPPPWKHEDSKRIYHFVEGQSVHYECIPGYKALQRGPAISICKMKCGKTGWTQPQLTCVDEREHHRFLASEESQGSRNSSPESETSCPITTTDFPQPTETTAMTETFVLTMEYKGGGSGGGSGGGSSRGQYSREDNNCTHFPVGQSHMLLELRTAFSQVKTFFQTKDQLDNILLTDSLMQDFKGYLGCQALSEMIQFYLVEVMPQAEKHGPEIKEHLNSLGEKLKTLRMRLRRCHRFLPCENKSKAVEQVKSDFNKLQDQGVYKAMNEFDIFINCIEAYMMIKMKSGGHHHHHH
notes: Under native conditions it is predominately a non-covalent dimer; also called mIL-2-10/CD25; mIL2-10/CD25
**Q.** Does B1 bind?
**A.** binds
